This is an account of results in the nanobody polyreactivity screen of Harvey et al. (2022).

This data set can be described thus: yeast display, Sf9 membrane polyspecificity reagent, FACS + sequencing; frameworks hold sequencing errors. The method in brief:
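Sorting gates, low and high (top ~1%), were placed on anti-HA fluorescence to track expression and on streptavidin fluorescence to track reagent binding. A clone's polyreactivity label is taken from the gate it came out of. The reagent was 10% biotinylated, detergent-solubilized Sf9 membrane, applied for 1 hour at 4 °C to galactose-induced yeast display cells.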
As for “QVQLVESGGGLVQAGGSLRLSCAASGSTFGKYAMGWYRQAPGKERELVAAISKSGGSTYYADSVKGRFTISRDNAKNTVYLQMNSLKPEDTAVYYCAADVTYGTKWAYDYWGQGTQVTVSS”, the “polyreactivity (PSR sort gate)” value is given as “high polyreactivity”.

As for “QVQLVESGGGLVQAGGSLRLSCAASGSTFGKYAMGWYRQAPGKERELVATISWSGTSTYYADSVKGRFTISRDNAKNTVYLQMNSLKPEDTAVYYCAADSEGVGVKHIYDYWGQGTQVTVSS”, the “polyreactivity (PSR sort gate)” value was “low polyreactivity”.

Take “QVQLVESGGGLVQAGGSLRLSCAASGSTFGKYAMGWYRQATGKERELVAAITNGGRTNYADSVKGRFTISRDNAMNTVYLQMNSMKPEDTAVYYCNKARYGTDDYDYWGQGTQVTVSS”: the “polyreactivity (PSR sort gate)” value is on record as “low polyreactivity”.

Regarding “QVQLVESGGGLVQAGGSLRLSCAASGSTFGKYTMGWYRQAPGKERELVAAISWSGGNTYYADSVKGRFTISRDNAKNTVYLQMNSLKPEDTAVYYCAAEREAYNTWFDYWGQGTQVTVSS”, the “polyreactivity (PSR sort gate)” value is listed as “high polyreactivity”.

For the sequence “QVQLVESGGGLVQAGGSLRLSCAASGSTFGLNAMGWYRQAHGKERDVVAAITRSDITNYADSVKGRFTISRDNAKNTVYLQMNSLKPEDTAVYYCNKTPDRHRRYFGYGYWGQGTQVTVSS”, the “polyreactivity (PSR sort gate)” value is on record as “low polyreactivity”.

For “QVQLVESGGGLVQAGGSLRLSCAASGSTFGLNAMGWYRQAPGKERELVAAITWSGASTYYADSVKGRFTISRDNAKNTVYLQMNSLKPEDTAVYYCAKDIPTDYKDVNYWGQGTQVTVSS”, the “polyreactivity (PSR sort gate)” value was “low polyreactivity”.

Consider “QVQLVESGGGLVQAGGSLRLSCAASGSTFGLYAMGWYRQAPGKEREFVAAITASGGRTYYADSVKGRFTISRDHAKNTVYLQMNSLKPEDTAVYYCNSRTSHYDKYGYWGQGTQVTVSS”, for which the “polyreactivity (PSR sort gate)” value is “high polyreactivity”.

In the case of “QVQLVESGGGLVQAGGSLRLSCAASGSTFGLYAMGWYRQAPRKERELVAVIRWGSGRTYYADSVKGRFTISRDNAKNTVYLQMNSLKPEDTAVYYCAKDRSYGSSSKRFGYWGQGTQVTVSS”, the “polyreactivity (PSR sort gate)” value is on record as “high polyreactivity”.

In the case of “QVQLVESGGGLVQAGGSLRLSCAASGSTFGLYAMGWYRQEPGKERELVAAITWRASSTYYADSVKGRFTISRDNAKNTVYLQMNSLKPEDTAVYYCAATWYSRFSRGDYDYWGQGTLVTVSS”, the “polyreactivity (PSR sort gate)” value was “high polyreactivity”.

For “QVQLVESGGGLVQAGGSLRLSCAASGSTFGLYTMGWYRQAPGKARELVAVINRSGGSTYYADSVKGRFTISRDNAKNTVYLQMNSLKPEDTAVYYCAAQRAVAGGRLDYWGQGTQVTVSS”, the “polyreactivity (PSR sort gate)” value was “high polyreactivity”.

Take “QVQLVESGGGLVQAGGSLRLSCAASGSTFGNNAKGWYRQAPGKERELVAAITFRGTSTYADSVKGRFTISRDYAKNTVYLQMNSLKPEDTAVYYCAAVVYFVSYRFYYWGQGTQVTVSS”: the “polyreactivity (PSR sort gate)” value was “high polyreactivity”.

For “QVQLVESGGGLVQAGGSLRLSCAASGSTFGNNAMGWYRQAPGKERELVASINWNGGSTYYADSVKGRFTISRDNAKNTVYLQMNSLKPEDTAVYYCADDRVWAYWTYGYWGQGTQVTVSS”, the “polyreactivity (PSR sort gate)” value was “low polyreactivity”.

Regarding “QVQLVESGGGLVQAGGSLRLSCAASGSTFGNYAMAWYRQAPGKERELVATISRSGGSTYYADSVKGRFTISRDNAKNTVYLLMNSLKPEDTAVYYCNRRYYTRKPDYNSWGQGTQVTVSS”, the “polyreactivity (PSR sort gate)” value is given as “high polyreactivity”.

Consider “QVQLVESGGGLVQAGGSLRLSCAASGSTFGNYDIGWYRQAPGKERELVAAISFSGGSTYYADSVKGRFTISRDNAKNTVYLQMNSLIPEDTAVYYCAARSNYRMDYWGQGTQVTVSS”, for which the “polyreactivity (PSR sort gate)” value is listed as “high polyreactivity”.

Turning to “QVQLVESGGGLVQAGGSLRLSCAASGSTFGPNAMGWYRQAPGKERELVAAITDSGVSTYYAVSVKGRFTISRDNAKYTVYLQMNSLKPEDTAVYYCATDWYLHRFDYWGQGTQVTVSS”, the “polyreactivity (PSR sort gate)” value is “low polyreactivity”.

Regarding “QVQLVESGGGLVQAGGSLRLSCAASGSTFGPNAMGWYRQAPGKERELVATISSGGSTYYADSVKGRFTISRDNAKNTVYLQMNSLKPEDTAVYYCAVRTIIRPVDLYDYWGQGTQVTVSS”, the “polyreactivity (PSR sort gate)” value is “low polyreactivity”.

Consider “QVQLVESGGGLVQAGGSLRLSCAASGSTFGPNGMGWYRHAPGKERELVARIDRIGGGTYYADSVKGRFTISRDNANNTVYLQMNSLKPEDTAVYYCAAYGPSPFSQGYAKGDYWGQGTQVTVSS”, for which the “polyreactivity (PSR sort gate)” value is reported as “low polyreactivity”.

In the case of “QVQLVESGGGLVQAGGSLRLSCAASGSTFGPYAMGWYRQAPGKERELVAAIDKSGGSTYYADSVKGRFTISRDNAKNTVYLQMNSLKPEDTAVYYCAVEKRYPRRRYDYWGQGTQVTVSS”, the “polyreactivity (PSR sort gate)” value is “low polyreactivity”.

In the case of “QVQLVESGGGLVQAGGSLRLSCAASGSTFGPYARGWSRQAPGKERELVSTITRNGGSTYYADSVKGRFTISRDNAKNTVYLQMNSLKPEDTAVYYCNAEGRWSSFTQRMDYWGQGTQVTVSS”, the “polyreactivity (PSR sort gate)” value was “low polyreactivity”.

For the sequence “QVQLVESGGGLVQAGGSLRLSCAASGSTFGPYTMGWYRQAPGKERELVAAISYSGASTYYADSVKGRFTISRDNAKNTVYLQMNSLKPEDTAVYYCNTVYRYTRARYPYDYWGQGTQVTVSS”, the “polyreactivity (PSR sort gate)” value was “high polyreactivity”.

Consider “QVQLVESGGGLVQAGGSLRLSCAASGSTFGQYAMGWYRQAPGKERELVAAISSGGRTNYADSVKGRFTISRDNAKNTVYLQMNSLKPEDTAVYYCAARYYFPFRRFRRMDYWGQGTQVTVSS”, for which the “polyreactivity (PSR sort gate)” value is “high polyreactivity”.

Take “QVQLVESGGGLVQAGGSLRLSCAASGSTFGQYAMGWYRQAPGKERELVATISSGSTYYADSVKGRFTISRDNAKNTVYLQMNSLKPEDTAVYYCAATRRWYKSKKTFYYWGQGTQVTVSS”: the “polyreactivity (PSR sort gate)” value is reported as “high polyreactivity”.

For the sequence “QVQLVESGGGLVQAGGSLRLSCAASGSTFGRNAMGWYRQAPGKDRELVAAINSGGGTYYADSVKGRFTISRDNAKNTVYLQMNSLKPEDTAVYDCAAARGYGNYVYWGQGTQVTVSS”, the “polyreactivity (PSR sort gate)” value was “low polyreactivity”.

As for “QVQLVESGGGLVQAGGSLRLSCAASGSTFGRNAMGWYRQAPGKERELVAAISWRSTPTYYADSVKGRFTISRDNAKNTVYLQMNSLKPEDTAVYYCAVYYYYPSTNGYHYDYWGHGTQVTVSS”, the “polyreactivity (PSR sort gate)” value is listed as “high polyreactivity”.

Regarding “QVQLVESGGGLVQAGGSLRLSCAASGSTFGRNAMGWYRQAPGKERELVASITSRGTSTYADSVKGRFTISRDNAKNTVYLQMNSLKPEDTAVYYCAAGVISYRRRSYYYWGQGTQVTVSS”, the “polyreactivity (PSR sort gate)” value was “high polyreactivity”.

With “QVQLVESGGGLVQAGGSLRLSCAASGSTFGRYAMGWSRQAPGKERELVAAITTSGRRTRYADSVKGRFTISRDNAKNTVYLQMNSLKPEDTAVYYCAASGAQGPDYDYWGQGTQVTVSS”, the “polyreactivity (PSR sort gate)” value is on record as “low polyreactivity”.

Turning to “QVQLVESGGGLVQAGGSLRLSCAASGSTFGRYAMGWYRQAPGKERELVAAITSGSSTNYADSVKGRFTISRDNAKNTVYLPMNSLKPEDTAVYYCAAPKSRQSTYYYWGQGTQVTVSS”, the “polyreactivity (PSR sort gate)” value is “high polyreactivity”.

For the sequence “QVQLVESGGGLVQAGGSLRLSCAASGSTFGRYTMGWYRQAPGKERQLVAAISSSGGGTYYADSVKGRLTISRDNAKNTVYLQMNSLKPEDTAVYYCAALGSRRYTRYGLTGFDYWGQGTQVTVSS”, the “polyreactivity (PSR sort gate)” value is reported as “high polyreactivity”.

For the sequence “QVQLVESGGGLVQAGGSLRLSCAASGSTFGRYVMGLYRQAPGQERELVAAISKNAGSTYYADSVKGRFTISRDNAKNTVYLQMNSLKPEDTAVYYCAADWRTKGYDSLGQGTQVTVSS”, the “polyreactivity (PSR sort gate)” value was “high polyreactivity”.

Turning to “QVQLVESGGGLVQAGGSLRLSCAASGSTFGRYVMGWYRQAPGKERELVAAISGSGGSTYYADSVKGRFTISRDNAKNTVYLQMNSLKPEDTAVYYCAARVAHYEYYWGQGTQVTVSS”, the “polyreactivity (PSR sort gate)” value is recorded as “high polyreactivity”.

Consider “QVQLVESGGGLVQAGGSLRLSCAASGSTFGRYVMGWYRQAPGKERELVAAISKNAGSTYYADSVKGRFTISRDNAKNTVYLQMNSLKPEDTAVYYCNAQSFREYGYWGQGTQVTVSS”, for which the “polyreactivity (PSR sort gate)” value is listed as “high polyreactivity”.

As to “QVQLVESGGGLVQAGGSLRLSCAASGSTFGSNALGWYREAPAKERELVAAIDANCGSTYYADSVKGRFTISRDNAKNTVYLQMHSQKQEDTAVYYCAAAGYCYYYVPNDYWGQGTQVTVSS”, the “polyreactivity (PSR sort gate)” value is listed as “low polyreactivity”.

On to “QVQLVESGGGLVQAGGSLRLSCAASGSTFGSNAMGGYRKAPGKERELVAAISTSGGSTYYADSVKGRFTISRDNAKNTVYLQMNSLKPEDTAVYYCNVDPAYSITYKGDYWGQGTQVSVSS”, for which the “polyreactivity (PSR sort gate)” value is recorded as “low polyreactivity”.

Consider “QVQLVESGGGLVQAGGSLRLSCAASGSTFGSNAMGWSRQAPGKERELVAAITYSGGRTYYADSVQGRFTISRDNAKNTVYLQMNSLKPEDPAVYYCAATFGFFYYQYDYWGQGTQVTVSS”, for which the “polyreactivity (PSR sort gate)” value is “low polyreactivity”.

Consider “QVQLVESGGGLVQAGGSLRLSCAASGSTFGSNAMGWYRQAPGKERELVAAIRGIVGSTYYADSVKGRFTISRDNAKNTVYLQMNSLKPEDTAVYYCNKAEVSTYYHTRSTYGGYDYWGQGTQVTVSS”, for which the “polyreactivity (PSR sort gate)” value is “low polyreactivity”.

As for “QVQLVESGGGLVQAGGSLRLSCAASGSTFGSYAMGWHRQAPGKERELVASITYSGDSSNYSDSVKGRFTLSRDNAKNTVYLQMNSLKPEDTAVYYCKARAVMTQYIQKRYDYWGQGTQVTVSS”, the “polyreactivity (PSR sort gate)” value is on record as “low polyreactivity”.

“QVQLVESGGGLVQAGGSLRLSCAASGSTFGSYAMGWYIQAPGKERELVAAISRAGSTYADSVKGRFTISRDNAKNTVYLQMNSLKPEDTAVYYCAKRDNALYYGYDYWGQGTQVTVSS”: the “polyreactivity (PSR sort gate)” value is reported as “low polyreactivity”.

Consider “QVQLVESGGGLVQAGGSLRLSCAASGSTFGSYAMGWYRQAPGGERELVAAISWNGGRTYYADSVKGRFTISRDNAKNTVYLQMNSLKPEDTAVYYCAKVVKYQSGGGLEYWGQGTQVTVSS”, for which the “polyreactivity (PSR sort gate)” value is given as “high polyreactivity”.

“QVQLVESGGGLVQAGGSLRLSCAASGSTFGSYAMGWYRQAPGKERELVAAISYSGGSTYYADSVKGRFTISRDNAKNTVYLLMNSLKPEDTAVYYCATVRKYRAMDYWGQGTQVTVSS”: the “polyreactivity (PSR sort gate)” value is “high polyreactivity”.

With “QVQLVESGGGLVQAGGSLRLSCAASGSTFGSYAMGWYRQAPGKERELVAAITSSGGRTYYADSVKGRFTISRDNSKNTVYLQMNSLKPEDTAVYYCAARPRGGVFEYGYWGQGTQVTVSS”, the “polyreactivity (PSR sort gate)” value was “high polyreactivity”.

As to “QVQLVESGGGLVQAGGSLRLSCAASGSTFGSYAMGWYRQAPGKERELVAGISWSGGRTYYADSVKGRFTISRDNAKNTVYLQMNSLKPEDTAVYYCARDTGYYYARYNYWGQGTQVTVSS”, the “polyreactivity (PSR sort gate)” value is “low polyreactivity”.
